The source of these data is US20180036256A1 (ALBERT LUDWIGS UNIVERSIT T FREIBURG, published 2018).

Square brackets hold non-standard residues; d marks the D form. Ends that are not written are not given here. Lys(Me2) = CN(C)CCCC[C@H](N)C(=O)O

For one assay, the target named is T1, CHD1 D425A (UniProt O14646 270-443, limits assumed).
T1 construct: also called D425A mutation in CHD1
T1 sequence (looked up): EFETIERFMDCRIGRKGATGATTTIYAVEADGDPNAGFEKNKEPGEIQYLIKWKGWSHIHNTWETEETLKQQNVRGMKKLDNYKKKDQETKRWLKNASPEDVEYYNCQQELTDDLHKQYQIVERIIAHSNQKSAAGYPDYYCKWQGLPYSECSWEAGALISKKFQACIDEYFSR
Kind of assay: isothermal titration calorimetry (data not shown).

In assay [1] the target is T2, CHD1aa270-443 (UniProt O14646 270-443).
T2 construct: Recombinant fragment; also called CHD1 double chromodomain fragment
T2 sequence (looked up): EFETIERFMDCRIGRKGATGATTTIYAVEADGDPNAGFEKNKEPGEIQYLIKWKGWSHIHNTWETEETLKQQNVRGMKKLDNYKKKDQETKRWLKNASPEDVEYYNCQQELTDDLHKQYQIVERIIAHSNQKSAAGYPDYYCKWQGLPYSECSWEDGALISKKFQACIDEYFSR
Kind of assay: co-crystal structure of the CHD1 double chromodomain with the LSD1 K114me2 peptide.
Description: Crystals (space group P21212) were grown by sitting drop vapour diffusion at 4° C. in buffer containing 100 mM Hepes pH 7.5, 0.2 M L-proline, 10% (w/v) PEG3350. Prior to flash cooling in liquid nitrogen, crystals were cryoprotected in reservoir solution with 20% (v/v) ethylene glycol. Initial X-ray diffraction data were collected at the PXI beamline at the Swiss Light Source at 1=1.000 Å with a Pilatus detector. […] Data were processed and analyzed with XDS28 and Aimless²⁹. The structure was solved by molecular replacement with Phaser³⁰ using 2B2W as a search model. Manual building and refinement were performed using Coot31 and Refmac532 in the CCP4 program suite³³.

Assay [2] addresses T2, CHD1aa270-443. Kind of assay: isothermal titration calorimetry (data not shown).
For the next assay, the target named is T3, Flag-LSD1 K114A (UniProt O60341 1-852, limits assumed).
T3 construct: Obtained by site directed mutagenesis of Flag-LSD1; not shown: Flag tag
Kind of assay: co-immunoprecipitation with anti-Flag antibody from transfected 293T cells without G9A, Western blot decorated with anti-CHD1.

B1: LSD1aa104-127 K114me2 peptide (peptide, UniProt O60341 104-127, looked up)
peptide: TPEGRRTSRR[Lys(Me2)]RAKVEYREMDESL
notes: range 104-127; Synthetic peptide, used on the microarray and in ITC; also called LSD1 K114me2 peptide; dimethylated LSD1 peptide
With B1, the binding result with CHD1 D425A is recorded as “no binding”.

B2: LSD1aa108-119 K114me2 peptide (peptide, UniProt O60341 108-119, looked up)
peptide: RRTSRR[Lys(Me2)]RAKVE
notes: range 108-119; Peptide used for co-crystallisation; only residues 110-116 were modelled in the electron density; also called LSD1aa110-116 K114me2 (residues modelled in the structure); LSD1 K114me2 peptide
Take B2: in the assay with CHD1aa270-443 [1], the binding result was “binds”. As to TPEGRRTSRA[Lys(Me2)]RAKVEYREMDESL (peptide, UniProt O60341 104-127, looked up, also called LSD1 R113A K114me2 peptide) [LSD1 K114me2 peptide with R113 mutated to alanine], in the assay with CHD1aa270-443 [2], the binding result is recorded as “no binding”.

B3: endogenous CHD1 (enzyme, human, UniProt O14646 1-1710, looked up)
chain: MNGHSDEESVRNSSGESSQSDDDSGSASGSGSGSSSGSSSDGSSSQSGSSDSDSGSESGSQSESESDTSRENKVQAKPPKVDGAEFWKSSPSILAVQRSAILKKQQQQQQQQQHQASSNSGSEEDSSSSEDSDDSSSEVKRKKHKDEDWQMSGSGSPSQSGSDSESEEEREKSSCDETESDYEPKNKVKSRKPQNRSKSKNGKKILGQKKRQIDSSEEDDDEEDYDNDKRSSRRQATVNVSYKEDEEMKTDSDDLLEVCGEDVPQPEEEEFETIERFMDCRIGRKGATGATTTIYAVEADGDPNAGFEKNKEPGEIQYLIKWKGWSHIHNTWETEETLKQQNVRGMKKLDNYKKKDQETKRWLKNASPEDVEYYNCQQELTDDLHKQYQIVERIIAHSNQKSAAGYPDYYCKWQGLPYSECSWEDGALISKKFQACIDEYFSRNQSKTTPFKDCKVLKQRPRFVALKKQPSYIGGHEGLELRDYQLNGLNWLAHSWCKGNSCILADEMGLGKTIQTISFLNYLFHEHQLYGPFLLVVPLSTLTSWQREIQTWASQMNAVVYLGDINSRNMIRTHEWTHHQTKRLKFNILLTTYEILLKDKAFLGGLNWAFIGVDEAHRLKNDDSLLYKTLIDFKSNHRLLITGTPLQNSLKELWSLLHFIMPEKFSSWEDFEEEHGKGREYGYASLHKELEPFLLRRVKKDVEKSLPAKVEQILRMEMSALQKQYYKWILTRNYKALSKGSKGSTSGFLNIMMELKKCCNHCYLIKPPDNNEFYNKQEALQHLIRSSGKLILLDKLLIRLRERGNRVLIFSQMVRMLDILAEYLKYRQFPFQRLDGSIKGELRKQALDHFNAEGSEDFCFLLSTRAGGLGINLASADTVVIFDSDWNPQNDLQAQARAHRIGQKKQVNIYRLVTKGSVEEDILERAKKKMVLDHLVIQRMDTTGKTVLHTGSAPSSSTPFNKEELSAILKFGAEELFKEPEGEEQEPQEMDIDEILKRAETHENEPGPLTVGDELLSQFKVANFSNMDEDDIELEPERNSKNWEEIIPEDQRRRLEEEERQKELEEIYMLPRMRNCAKQISFNGSEGRRSRSRRYSGSDSDSISEGKRPKKRGRPRTIPRENIKGFSDAEIRRFIKSYKKFGGPLERLDAIARDAELVDKSETDLRRLGELVHNGCIKALKDSSSGTERTGGRLGKVKGPTFRISGVQVNAKLVISHEEELIPLHKSIPSDPEERKQYTIPCHTKAAHFDIDWGKEDDSNLLIGIYEYGYGSWEMIKMDPDLSLTHKILPDDPDKKPQAKQLQTRADYLIKLLSRDLAKKEALSGAGSSKRRKARAKKNKAMKSIKVKEEIKSDSSPLPSEKSDEDDDKLSESKSDGRERSKKSSVSDAPVHITASGEPVPISEESEELDQKTFSICKERMRPVKAALKQLDRPEKGLSEREQLEHTRQCLIKIGDHITECLKEYTNPEQIKQWRKNLWIFVSKFTEFDARKLHKLYKHAIKKRQESQQNSDQNSNLNPHVIRNPDVERLKENTNHDDSSRDSYSSDRHLTQYHDHHKDRHQGDSYKKSDSRKRPYSSFSNGKDHRDWDHYKQDSRYYSDREKHRKLDDHRSRDHRSNLEGSLKDRSHSDHRSHSDHRLHSDHRSSSEYTHHKSSRDYRYHSDWQMDHRASSSGPRSPLDQRSPYGSRSPFEHSVEHKSTPEHTWSSRKT
notes: Endogenous protein in cell extracts; also called endogenously expressed CHD1
Turning to B3, in the assay with Flag-LSD1 K114A, the binding result was “no binding”.
